# According to PMC12207370, “Macrocyclic Peptide Probes for Immunomodulatory Protein CD59: Potent Modulators of Bacterial Toxin Activity and Antibody‐Dependent Cytotoxicity” (Angewandte Chemie (International Ed. in English), 2025):
# Molecular target: T1, biotinylated CD59 (Homo sapiens, UniProt P13987)
# T1 construct: Recombinant soluble human CD59 with an additional C-terminal cysteine residue
# T1 sequence (P13987 26-102 limits assumed): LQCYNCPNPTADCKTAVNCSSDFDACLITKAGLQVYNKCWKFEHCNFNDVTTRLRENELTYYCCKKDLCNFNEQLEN
# Assay: mRNA-display cyclic peptide screen against CD59-biotin, NGS abundance after 6th selection round
# Details: for Percentage Seq I: counts normalised by total counts of sample Seq I; for Percentage Seq I / Percentage Seq II: percentage of the pool; for Percentage Seq I / Percentage Seq II / Percentage Average / Percentage of the pool, averaged across the two sequencing samples / Percentage of the pool, Seq I / Percentage of the pool, Seq II: sheet R6; for Percentage Seq II: counts normalised by total counts of sample Seq II; for Percentage Average: percentage of the pool averaged across the two sequencing samples; for Counts Seq I / Counts Seq II: raw NGS counts of peptide sequence; for Counts Seq I: sequencing sample Seq I; for Counts Seq I / Counts Seq II / Counts (raw counts for peptide sequence), Seq I / Counts (raw counts for peptide sequence), Seq II: sheet R6 (6th selection round); for Counts Seq II: sequencing sample Seq II; for Counts (raw counts for peptide sequence), Seq I: NGS sample Seq I; for Counts (raw counts for peptide sequence), Seq II: NGS sample Seq II; for Percentage of the pool, averaged across the two sequencing samples: average of Seq I and Seq II; for Percentage of the pool, Seq I: counts normalised by total counts of NGS sample Seq I; for Percentage of the pool, Seq II: counts normalised by total counts of NGS sample Seq II
# Summary of the method: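 Peptide–mRNA fusions were made by in vitro translation with a customised PURE express kit. The kit lacked release factor 1 and methionine and was supplemented with […] initiator tRNA carrying N-chloroacetyl-d-tyrosine. Thioether macrocycles were formed, then enriched and amplified over iterative rounds on CD59-biotin immobilised on streptavidin beads. NGS read counts per sequence were recorded after the 6th selection round.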
Sequence,Percentage Seq I,Percentage Seq II,Percentage Average,Counts Seq I,Counts Seq II,"Counts (raw counts for peptide sequence), Seq I","Counts (raw counts for peptide sequence), Seq II","Percentage of the pool, averaged across the two sequencing samples","Percentage of the pool, Seq I","Percentage of the pool, Seq II"
FVRGDLHSVLG,0.058%,0.044%,0.051%,253,19,,,,,
FVRGDLNSVLG,,,,,,69,5,0.014%,0.016%,0.012%
FVRGDLYPVLG,,,,,,65,5,0.013%,0.015%,0.012%
FVRGDLYSALG,,,,,,80,6,0.016%,0.018%,0.014%
FVRGDLYSILG,,,,,,50,6,0.013%,0.011%,0.014%
FVRGDLYSVFG,0.023%,0.026%,0.024%,102,11,,,,,
FVRGDLYSVIG,,,,,,54,6,0.013%,0.012%,0.014%
FVRGDLYSVLG,4.958%,4.911%,4.934%,21693,2116,,,,,
FVRGDLYSVLS,,,,,,43,4,0.010%,0.010%,0.009%
FVRGDLYSVRG,0.018%,0.032%,0.025%,78,14,,,,,
FVRGDMYSVLG,,,,,,39,6,0.011%,0.009%,0.014%
FVRGDPYSVLG,0.057%,0.049%,0.053%,251,21,,,,,
FVRGDQYSVLG,0.056%,0.081%,0.069%,247,35,,,,,
FVRGDRYSVLG,0.045%,0.039%,0.042%,198,17,,,,,
FVRGGLYSVLG,0.020%,0.019%,0.019%,86,8,,,,,
FVRGNRYSVLG,,,,,,64,5,0.013%,0.015%,0.012%
FVRGNSTSVLF,0.020%,0.019%,0.019%,88,8,,,,,
FVSGNRDHTRG,,,,,,51,5,0.012%,0.012%,0.012%
FVSGNSRFRRE,0.062%,0.070%,0.066%,270,30,,,,,
FVTGDRDHTRG,0.127%,0.121%,0.124%,554,52,,,,,
FVTGNRDHARG,0.029%,0.035%,0.032%,126,15,,,,,
FVTGNRDHTHG,,,,,,45,5,0.011%,0.010%,0.012%

Sequence,Percentage Seq I,Percentage Seq II,Percentage Average,Counts Seq I,Counts Seq II,"Counts (raw counts for peptide sequence), Seq I","Counts (raw counts for peptide sequence), Seq II","Percentage of the pool, averaged across the two sequencing samples","Percentage of the pool, Seq I","Percentage of the pool, Seq II"
FVTGNRDHTRE,,,,,,33,7,0.012%,0.00754%,0.016%
FVTGNRDHTRG,7.311%,7.094%,7.203%,31986,3057,,,,,
FVTGNRDHTRV,,,,,,35,5,0.010%,0.008%,0.012%
FVTGNRDHTSG,,,,,,60,4,0.011%,0.014%,0.009%
FVTGNRDNTRG,,,,,,80,6,0.016%,0.018%,0.014%
FVTGNRDRTRG,0.019%,0.026%,0.022%,81,11,,,,,
FVTGNRDYTRG,0.050%,0.063%,0.056%,220,27,,,,,
FVTGNREHTRG,0.025%,0.035%,0.030%,110,15,,,,,
FVTGNRGHTRG,0.024%,0.016%,0.020%,105,7,,,,,
FVTGNRNHTRG,0.032%,0.028%,0.030%,142,12,,,,,
FVTGNSDHTRG,,,,,,52,4,0.011%,0.012%,0.009%
FVTGSRDHTRG,0.074%,0.053%,0.063%,322,23,,,,,
FVTSNRDHTRG,,,,,,23,6,0.010%,0.005%,0.014%
GPRNECHSQFQN,0.092%,0.086%,0.089%,401,37,,,,,
GRLNECHAIWP,0.112%,0.104%,0.108%,488,45,,,,,
GRLNECHVIRP,,,,,,43,7,0.013%,0.010%,0.016%
GRLNECHVIWP,0.317%,0.302%,0.310%,1389,130,,,,,
GRLNECHVIWS,0.015%,0.037%,0.026%,65,16,,,,,
GRLNECHVTWP,,,,,,43,9,0.015%,0.010%,0.021%
GRRNECLSRTS,,,,,,68,3,0.011%,0.016%,0.007%
GRVRTCPVIV,,,,,,65,5,0.013%,0.015%,0.012%
GRYNECHFITS,,,,,,59,6,0.014%,0.013%,0.014%
